In experiment [1] the target is T1, cynomolgus monkey SIRPα on CHO cells (cynomolgus monkey, UniProt A0A2K5VYQ9 31-507).
T1 construct: whole, on cells; also called Cyno SIRPα CHO
T1 sequence: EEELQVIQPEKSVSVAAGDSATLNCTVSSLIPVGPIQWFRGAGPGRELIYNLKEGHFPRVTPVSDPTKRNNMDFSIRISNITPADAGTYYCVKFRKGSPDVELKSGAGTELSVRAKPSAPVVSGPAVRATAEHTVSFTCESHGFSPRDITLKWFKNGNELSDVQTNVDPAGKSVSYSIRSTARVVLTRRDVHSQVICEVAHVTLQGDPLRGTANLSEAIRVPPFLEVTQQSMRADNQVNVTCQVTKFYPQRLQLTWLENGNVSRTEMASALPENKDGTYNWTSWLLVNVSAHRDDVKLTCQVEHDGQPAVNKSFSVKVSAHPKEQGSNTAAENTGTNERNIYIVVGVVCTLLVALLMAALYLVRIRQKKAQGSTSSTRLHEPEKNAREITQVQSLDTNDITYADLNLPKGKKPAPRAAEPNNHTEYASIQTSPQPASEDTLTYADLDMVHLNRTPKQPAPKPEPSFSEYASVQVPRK
Kind of experiment: flow cytometry, CHO transfectants, anti-human IgG. The procedure:
(§1) Selected antibodies were tested for binding to stably transfected human SIRPγ, SIRPαV1, or SIRPβ1 (co-transfected with DAP12) Chinese hamster ovary (CHO) cells via flow cytometry. A titration of select antibodies was added to the cells and detected using a fluorescently labelled secondary anti-rat IgG antibody or anti-human IgG antibody. Graphs depict the median fluorescence intensity (MFI) at each concentration. FIGS. 5A and 5G show the binding curves of select antibodies to human SIRPγ, cynomolgus monkey SIRPγ, human SIRPα, cynomolgus monkey SIRPα, human SIRPβ1, or cynomolgus monkey SIRPβl-expressing CHO cells detected using an anti-rat IgG antibody. FIGS. 5B-5F and 5H-5L show the binding curves of select antibodies to human SIRPγ, cynomolgus monkey SIRPγ, human SIRPα, cynomolgus monkey SIRPα, human SIRPβ1, or cynomolgus monkey SIRPβ1-expressing CHO cells detected using an anti-human IgG antibody. […] For select antibodies, each myc-tagged SIRPγ scFv antibody as crude PPE was incubated with each of the SIRP-expressing cell lines stated above along with the parental CHO-K1 cell line. […] Fold change value <2.0 is considered a non-binder.
(In flow cytometry, cells or beads pass a laser one at a time.)

Experiment [2] has as its target T2, human SIRPβ1 on CHO cells (co-transfected with DAP12) (human, UniProt O00241 30-398).
T2 construct: whole, on cells; co-transfected with DAP12; also called Human SIRPβ1 CHO
Kind of experiment: flow cytometry, CHO transfectants, anti-human IgG. The procedure: as §1

The target of experiment [3] is T3, Cynomolgus Monkey SIRPγ (plate-coated extracellular domain).
T3 construct: also called Cyno SIRPγ
T3 extracellular domain: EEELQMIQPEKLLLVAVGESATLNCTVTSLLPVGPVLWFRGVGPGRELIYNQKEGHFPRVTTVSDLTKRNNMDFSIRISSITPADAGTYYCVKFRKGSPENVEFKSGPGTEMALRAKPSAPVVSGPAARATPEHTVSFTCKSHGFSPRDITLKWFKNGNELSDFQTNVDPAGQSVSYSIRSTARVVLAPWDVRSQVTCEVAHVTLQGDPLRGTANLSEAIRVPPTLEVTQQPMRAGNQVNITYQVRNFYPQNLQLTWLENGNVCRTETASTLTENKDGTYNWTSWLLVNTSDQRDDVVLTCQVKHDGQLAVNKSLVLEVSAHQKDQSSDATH
Kind of experiment: ELISA, coated SIRP ECD (2 µg/mL), anti-human IgG, luminescence. Here is the method:
(§2) Selected hybridoma supernatants of Example 1 were tested for binding to human SIRPγ, cynomolgus monkey SIRPγ, human SIRPα V1, cynomolgus monkey SIRPα, human SIRPβ1, and cynomolgus monkey SIRPβ1 by enzyme-linked immunosorbent assay (ELISA). Briefly, 2 μg/mL of the extracellular domain of SIRP protein was coated onto high protein-binding plates and blocked. Undiluted supernatants were added to coated plates. The antibodies were detected by an anti-rat antibody and a chemiluminescent substrate. […] The data depict the relative luminescence units read by a plate-reader capable of detecting chemiluminescence.
(§3) FIGS. 2A-2G show binding curves of SIRPγ antibodies and human Fc isotype controls to human SIRPγ, cynomolgus monkey SIRPγ, human SIRPα V1, human SIRPα V2, and human SIRPβ1 by ELISA. […] Isotype control 2 was an unrelated human IgG1 antibody with irrelevant CDRs with no modifications in the Fc region. DNA was transiently transfected into Expi293F cells for 5 days. Antibodies were purified by Protein A from cell supernatants and analyzed in a titration via ELISA as previously described in FIG. 1 using an anti-human IgG antibody as the detection antibody.
Background: An ELISA detects its analyte on a solid surface through an enzyme-linked reagent.

For experiment [4], the target named is T4, extracellular binding domain of human SIRPγ (plate-coated) (human, UniProt Q9P1W8 29-360).
T4 construct: also called hSIRPγ
T4 sequence (Q9P1W8 29-360 limits assumed): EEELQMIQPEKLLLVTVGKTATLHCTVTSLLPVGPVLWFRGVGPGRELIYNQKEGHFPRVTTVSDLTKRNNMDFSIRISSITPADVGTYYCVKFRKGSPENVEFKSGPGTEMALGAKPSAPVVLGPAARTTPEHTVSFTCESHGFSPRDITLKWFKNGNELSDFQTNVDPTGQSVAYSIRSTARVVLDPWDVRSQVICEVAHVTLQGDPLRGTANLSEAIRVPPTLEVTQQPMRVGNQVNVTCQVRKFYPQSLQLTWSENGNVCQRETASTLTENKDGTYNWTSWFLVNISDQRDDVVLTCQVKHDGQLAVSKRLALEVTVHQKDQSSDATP
The experiment is described as above. The procedure:
as §2, §3

T2 sequence (O00241 30-398): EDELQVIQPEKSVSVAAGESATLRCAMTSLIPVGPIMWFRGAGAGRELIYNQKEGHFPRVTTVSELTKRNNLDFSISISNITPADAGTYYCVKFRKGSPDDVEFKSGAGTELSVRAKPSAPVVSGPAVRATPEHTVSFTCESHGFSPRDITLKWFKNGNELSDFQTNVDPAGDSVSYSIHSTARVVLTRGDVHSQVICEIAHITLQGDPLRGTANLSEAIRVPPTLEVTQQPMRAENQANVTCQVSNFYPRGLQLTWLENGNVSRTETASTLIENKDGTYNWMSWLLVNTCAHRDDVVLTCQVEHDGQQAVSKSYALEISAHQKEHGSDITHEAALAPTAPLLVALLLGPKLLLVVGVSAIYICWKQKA

B1: Antibody 59 (antibody, V domains shown)
VH: QVQLVQSGAEVKKPGASVKVSCKASGYTFTSYDINWVRQAPGQGLEWMGWMNPNSGNTGYAQKFQGRVTMTRDTSTSTVYMELSSLRSEDTAVYYCARESYAYCSSTSCYDAFDIWGQGTMVTVSS
VL: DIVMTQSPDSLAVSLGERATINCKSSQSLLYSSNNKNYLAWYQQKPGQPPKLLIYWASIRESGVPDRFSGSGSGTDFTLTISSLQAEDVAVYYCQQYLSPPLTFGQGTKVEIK
Regarding B1, the binding result in experiment [1] and in experiment [2] was “no binding (tested: about 20 µg/mL)” each time. For the same molecule, the EC50 (read off the curve) – broadly, the midpoint of the concentration-response curve – in experiment [3] was approximately 0.3 µg/mL; in experiment [4], approximately 0.08 µg/mL.

B2: Antibody 72 (antibody, V domains shown)
VH: QVQLVQSGAEVKKPGASVKVSCKASGYTFTDNYLHWVRQAPGQGLEWMGIIETSGGSTDYAQKFQGRVTMTRDTSTSTVYMELSSLRSEDTAVYYCARSFGGYSYDDAFDIWGQGTTVTVSS
VL: DIQMTQSPSSLSASVGDRVTITCQASQGISNYLNWYQQKPGKAPKLLIYAASSLQSGVPSRFSGSGSGTDFTLTISSLQPEDFATYYCQQSYSSPYTFGQGTKVEIK
B2: the binding result in experiment [1] and in experiment [2] was “no binding (tested: about 20 µg/mL)” throughout. Besides, the “EC50 (read off the curve)” value in experiment [3] was approximately 0.3 µg/mL; in experiment [4] it was approximately 0.2 µg/mL.

B3: Antibody 63 (antibody, V domains shown)
VH: QVQLVQSGAEVKKPGASVKVSCKASGYTFTGYYMHWVRQAPGQGLEWMGIINPSGGSTNYAQKFQGRVTMTRDTSTSTVYMELSSLRSEDTAVYYCARGPIGYGMDVWGQGTLVTVSS
VL: DIQMTQSPSSLSASVGDRVTITCRASQGIGNDLGWYQQKPGKAPKLLIYAASNLETGVPSRFSGSGSGTDFTLTISSLQPEDFATYYCLQHHSYPFTFGQGTKLEIK
Take B3: the binding result in experiment [1] and in experiment [2] was “no binding (tested: about 20 µg/mL)” in each case. Also, the half-maximal effective concentration (EC50 (read off the curve)) is approximately 1 µg/mL in experiment [3] and approximately 0.8 µg/mL in experiment [4].

B4: Antibody 70 (antibody, V domains shown)
VH: QVQLVQSGAEVKKPGASVKVSCKASGYTFSNYYMHWVRQAPGQGLEWMGWMNPNSGNTGYAQKFQGRVTMTRDTSTSTVYMELSSLRSEDTAVYYCARASMYSSSGFDYWGQGTLVTVSS
VL: DIVMTQSPLSLPVTPGEPASISCRSSQSLLHSNGYNYLDWYLQKPGQSPQLLIYLASTRAPGVPDRFSGSGSGTDFTLKISRVEAEDVGVYYCMQGSHWPPSFGQGTRLEIK
With B4, the binding result in experiment [1] and in experiment [2] was “no binding (tested: about 20 µg/mL)” each time. In addition, the entries for the “EC50 (read off the curve)” value in experiment [3] and in experiment [4] were approximately 0.05 µg/mL and approximately 0.03 µg/mL, respectively.

B5: Antibody 58 (antibody, V domains shown)
VH: QVQLVQSGAEVKKPGASVKVSCKASGYTFTAYYMHWVRQAPGQGLEWMGIINPSGGSTSYAQKFQGRVTMTRDTSTSTVYMELSSLRSEDTAVYYCARDSGWYAPGYYYGMDVWGQGTTVTVSS
VL: DIQMTQSPSSLSASVGDRVTITCRASESISHWLAWYQQKPGKAPKLLIYGASTLQSGVPSRFSGSGSGTDFTLTISSLQPEDFATYYCQQSYTPPLTFGGGTKVEIK
Turning to B5, the binding result in experiment [1] and in experiment [2] was “no binding (tested: about 20 µg/mL)” in each case. Besides, the “EC50 (read off the curve)” value in experiment [3] was approximately 0.1 µg/mL; in experiment [4], approximately 0.09 µg/mL.

B6: Antibody 81 (antibody, V domains shown)
VH: QVQLVQSGAEVKKPGASVKVSCKASGYTFTSYDINWVRQAPGQGLEWMGWISGYNGNTNYAQKFQGRVTMTRDTSTSTVYMELSSLRSEDTAVYYCARSFDWLLLLDYWGQGTLVTVSS
VL: DIQMTQSPSSLSASVGDRVTITCRASQSISSWLAWYQQKPGKAPKLLIYDATTLESGVPSRFSGSGSGTDFTLTISSLQPEDFATYYCQQYDSYPWTFGQGTKLEIK
As for B6, the binding result in experiment [1] and in experiment [2] was “no binding (tested: about 20 µg/mL)” in each case. Besides, the “EC50 (read off the curve)” value in experiment [3] is approximately 0.04 µg/mL; in experiment [4] it was approximately 0.02 µg/mL.

B7: Antibody 68 (antibody, V domains shown)
VH: QVQLVQSGAEVKKPGASVKVSCKASGYTFTSYYMYWVRQAPGQGLEWMGWINPNSGNTGYAQKFQGRVTMTRDTSTSTVYMELSSLRSEDTAVYYCAKDRRRGVGLAAAGTSAFDIWGQGTMVTVSS
VL: DIQMTQSPSSLSASVGDRVTITCRASQSISNWLAWYQQKPGKAPKLLIYAASSLQSGVPSRFSGSGSGTDFTLTISSLQPEDFATYYCQQSYSTPYTFGQGTKLEIK
B7: the binding result in experiment [1] and in experiment [2] was “no binding (tested: about 20 µg/mL)” throughout. Also, the “EC50 (read off the curve)” value is approximately 1 µg/mL in experiment [3] and approximately 0.5 µg/mL in experiment [4].

The values are drawn from patent publication US20240400677A1 (ELECTRA THERAPEUTICS, published 2024).
